Assay results reported in patent publication US20230080224A1 (AGENCY FOR SCIENCE TECHNOLOGY AND RESEARCH, published 2023).
Each block holds one binder with its values, some of them ahead of it.

Legend:
[1] = molecular target: T1, human ALPP expressed on cells (human, UniProt P05187 23-506); test: FACS (FIG. 12A)
T1 construct: whole, on cells

[2] = molecular target: T2, human ALPPL2 expressed on cells (human, UniProt P10696 20-503); test: FACS (FIG. 12A)
T2 construct: whole, on cells; also called placental-like alkaline phosphatase

[3] = molecular target: T3, human ALPPL2 (recombinant protein) (human, UniProt P10696 20-503); test: BLI; single concentration
T3 chain: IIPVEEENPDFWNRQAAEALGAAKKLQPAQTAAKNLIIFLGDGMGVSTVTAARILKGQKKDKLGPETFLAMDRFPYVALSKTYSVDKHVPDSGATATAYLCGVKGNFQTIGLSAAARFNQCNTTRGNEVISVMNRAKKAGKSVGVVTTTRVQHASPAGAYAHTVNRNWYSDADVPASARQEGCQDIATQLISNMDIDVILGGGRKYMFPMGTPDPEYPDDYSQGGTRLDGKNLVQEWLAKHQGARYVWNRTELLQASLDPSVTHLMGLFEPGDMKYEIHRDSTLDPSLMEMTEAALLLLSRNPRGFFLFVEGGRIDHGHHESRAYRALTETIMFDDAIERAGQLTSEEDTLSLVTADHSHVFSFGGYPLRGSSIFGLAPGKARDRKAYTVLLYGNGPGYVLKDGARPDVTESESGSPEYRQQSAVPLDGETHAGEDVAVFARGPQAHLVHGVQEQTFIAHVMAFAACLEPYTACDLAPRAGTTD

[4] = molecular target: T4, ALPI (screening and SPR/ELISA protein) (UniProt P09923 20-503, limits assumed); test: screen of rabbit B-cell clones by ELISA and FACS
T4 sequence (looked up): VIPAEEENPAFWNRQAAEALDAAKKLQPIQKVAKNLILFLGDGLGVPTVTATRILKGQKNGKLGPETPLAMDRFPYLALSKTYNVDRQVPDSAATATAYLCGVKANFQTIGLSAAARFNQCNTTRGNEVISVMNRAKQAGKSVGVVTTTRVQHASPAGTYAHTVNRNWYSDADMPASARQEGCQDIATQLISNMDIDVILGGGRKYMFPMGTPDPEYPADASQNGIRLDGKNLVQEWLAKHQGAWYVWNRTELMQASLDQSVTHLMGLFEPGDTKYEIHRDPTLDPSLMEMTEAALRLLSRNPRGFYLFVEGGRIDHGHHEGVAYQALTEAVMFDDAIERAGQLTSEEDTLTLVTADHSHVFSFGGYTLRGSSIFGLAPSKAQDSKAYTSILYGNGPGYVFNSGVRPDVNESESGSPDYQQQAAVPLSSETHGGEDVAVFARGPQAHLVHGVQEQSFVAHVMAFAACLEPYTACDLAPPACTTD
Source text: (§1) Specific clones were screened and identified by ELISA and high throughput flow cytometry (FIG. 3). Rabbit kidney cells were transfected with either truncated (for ELISA screen) or full-length (for FACS screen) ALPI and ALPPL2.

[5] = molecular target: T5, human ALPPL2 (recombinant protein) (human, UniProt P10696 20-503, limits assumed); test: screen of rabbit B-cell clones by ELISA and FACS
T5 construct: biotinylated where captured on streptavidin
Source text: as §1

[6] = molecular target: T3, human ALPPL2 (recombinant protein); test: BLI
[7] = molecular target: T6, human ALPI expressed on cells (human, UniProt P09923 20-503); test: FACS on transiently transfected 293T cells (FIG. 13A)
T6 construct: whole, on cells
T6 sequence (looked up): T4 sequence (looked up)

[8] = molecular target: T7, human ALPL expressed on cells (human, UniProt P05186 18-501); test: as above
T7 construct: whole, on cells
T7 sequence (looked up): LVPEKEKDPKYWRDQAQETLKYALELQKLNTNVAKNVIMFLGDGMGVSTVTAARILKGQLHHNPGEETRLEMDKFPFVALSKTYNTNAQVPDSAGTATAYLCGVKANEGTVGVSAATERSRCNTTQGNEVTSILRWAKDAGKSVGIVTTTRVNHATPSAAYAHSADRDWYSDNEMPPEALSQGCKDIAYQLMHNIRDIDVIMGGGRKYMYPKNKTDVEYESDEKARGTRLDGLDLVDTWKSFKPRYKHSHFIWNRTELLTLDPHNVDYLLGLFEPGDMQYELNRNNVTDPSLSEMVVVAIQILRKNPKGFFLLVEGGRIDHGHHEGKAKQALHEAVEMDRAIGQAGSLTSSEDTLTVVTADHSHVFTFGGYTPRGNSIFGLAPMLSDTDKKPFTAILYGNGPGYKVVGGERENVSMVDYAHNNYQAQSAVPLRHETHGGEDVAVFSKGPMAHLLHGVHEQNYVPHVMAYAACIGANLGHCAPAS

[9] = molecular target: T1, human ALPP expressed on cells; test: as above
[10] = molecular target: human ALPP (recombinant protein) (human, UniProt P05187 23-506, limits assumed); test: biolayer interferometry, biotinylated ligand on SA biosensors (FIG. 12G)
Protocol: Chimerized C53 is also cross-reactive towards rhesus macaque ortholog. Binding affinity of humanized C53 as compared to humanized C36 to ALPPL and ALPP was performed using Biolayer Interferometry. In this technique, biotinylated ligands (i.e. ALPPL2 or ALPP) were immobilized on SA biosensors. Ligands-loaded sensors were then incubated with different concentrations of analyte (recombinantly expressed humanized antibody clones) in the buffer.

[11] = molecular target: T2, human ALPPL2 expressed on cells; test: FACS (FIG. 13)
[12] = molecular target: T5, human ALPPL2 (recombinant protein); test: SPR, Biacore T200, ligand captured by streptavidin on CM5 chip, antibody as analyte
Protocol: Select clones (C4, C15, C131, C12, C18, C36 and C53) were humanized by grafting the CDRs to a human IgG1 framework. […] Surface plasmon resonance was studied using Biacore T200. Ligands (e.g. ALPPL2 or ALPP) were immobilized on biosensors CM5 chips captured with the streptavidin. Ligands-loaded sensors were then incubated with different concentrations of analyte (recombinant expressed humanized antibody clones) to measure affinity.

T1 sequence (P05187 23-506): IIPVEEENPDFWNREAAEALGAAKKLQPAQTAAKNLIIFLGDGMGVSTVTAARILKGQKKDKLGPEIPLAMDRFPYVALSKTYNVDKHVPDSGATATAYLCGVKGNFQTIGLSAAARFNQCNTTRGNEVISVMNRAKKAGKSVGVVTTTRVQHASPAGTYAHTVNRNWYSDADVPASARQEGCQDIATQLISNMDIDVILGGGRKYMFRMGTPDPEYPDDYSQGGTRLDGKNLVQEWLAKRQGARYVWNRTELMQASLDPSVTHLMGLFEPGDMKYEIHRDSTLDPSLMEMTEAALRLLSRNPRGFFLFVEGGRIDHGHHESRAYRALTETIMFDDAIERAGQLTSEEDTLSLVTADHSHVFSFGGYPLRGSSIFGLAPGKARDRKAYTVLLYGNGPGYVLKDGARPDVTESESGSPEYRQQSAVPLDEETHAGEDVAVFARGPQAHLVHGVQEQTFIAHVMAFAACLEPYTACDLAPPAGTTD
human ALPP (recombinant protein), sequence (P05187 23-506 limits assumed): as the sequence (P05187 23-506) above

binding result [1]: binds | binding result [2]: binds | Kd [3]: 0.001 nM | binding result [4]: no binding | binding result [5]: binds
B1: AB1C4 (antibody, V domains shown)
VH: QSLEESGGDLVKPGPSLTLTCKASGFTISNNYWICWVRQAPGKGLEWIGCIATGDGSTYYASWAKGRFTISKTSSTTVTLQMTSLTAADTATYFCARGAAGSSWTTYFDFWGPGTPVTVSS
VL: DIVMTQTPASVEAAVGGTVTIKCQAGQNIDNYLSWYQQKPGQPPKLLIYRASTLASGVPSRFKGSGSGTEFTLTISDLECADAATYYCQNNNGGSTFTGFPFGGGTEVVVK
notes: Rabbit antibody cloned from a single B cell; also called rabbit C4

Kd [6]: 1 nM | binding result [7]: no binding | binding result [8]: no binding | binding result [9]: no binding | binding result [10]: no binding | binding result [11]: binds | binding result [12]: binds
B2: humanized C53 (antibody, human IgG1, V domains shown)
VH: EVQLVESGGGLVQPGGSLRLSCAASGFSFSSGYDMCWVRQAPGKGLEWIACIHSSSGTTYYASWAKGRFTISRDNSKNTLYLQMNSLRAEDTAVYYCARDFSYTDDYISYVYATDLWGQGTLVTVSS
VL: DIQMTQSPSSLSASVGDRVTITCQASQSIGSSLAWYQQKPGKVPKLLIYAASYLASGVPSRFSGSGSGTDFTLTISSLQPEDVATYYCQSTYYSSSTDIRAFGQGTKVEIK
notes: CDRs grafted to a human IgG1 framework; recombinant; also called hC53
